Measured values as given in paper PMC4637903.

What follows are substances tested against wild-type β4 integrin (co-immunoprecipitations from transfected cells) (UniProt P16144) (assay: co-immunoprecipitation (IP: β4) and Western blot, densitometry). Settings: parent: 1.0.
Chain of UniProt P16144 (P16144 28-1822): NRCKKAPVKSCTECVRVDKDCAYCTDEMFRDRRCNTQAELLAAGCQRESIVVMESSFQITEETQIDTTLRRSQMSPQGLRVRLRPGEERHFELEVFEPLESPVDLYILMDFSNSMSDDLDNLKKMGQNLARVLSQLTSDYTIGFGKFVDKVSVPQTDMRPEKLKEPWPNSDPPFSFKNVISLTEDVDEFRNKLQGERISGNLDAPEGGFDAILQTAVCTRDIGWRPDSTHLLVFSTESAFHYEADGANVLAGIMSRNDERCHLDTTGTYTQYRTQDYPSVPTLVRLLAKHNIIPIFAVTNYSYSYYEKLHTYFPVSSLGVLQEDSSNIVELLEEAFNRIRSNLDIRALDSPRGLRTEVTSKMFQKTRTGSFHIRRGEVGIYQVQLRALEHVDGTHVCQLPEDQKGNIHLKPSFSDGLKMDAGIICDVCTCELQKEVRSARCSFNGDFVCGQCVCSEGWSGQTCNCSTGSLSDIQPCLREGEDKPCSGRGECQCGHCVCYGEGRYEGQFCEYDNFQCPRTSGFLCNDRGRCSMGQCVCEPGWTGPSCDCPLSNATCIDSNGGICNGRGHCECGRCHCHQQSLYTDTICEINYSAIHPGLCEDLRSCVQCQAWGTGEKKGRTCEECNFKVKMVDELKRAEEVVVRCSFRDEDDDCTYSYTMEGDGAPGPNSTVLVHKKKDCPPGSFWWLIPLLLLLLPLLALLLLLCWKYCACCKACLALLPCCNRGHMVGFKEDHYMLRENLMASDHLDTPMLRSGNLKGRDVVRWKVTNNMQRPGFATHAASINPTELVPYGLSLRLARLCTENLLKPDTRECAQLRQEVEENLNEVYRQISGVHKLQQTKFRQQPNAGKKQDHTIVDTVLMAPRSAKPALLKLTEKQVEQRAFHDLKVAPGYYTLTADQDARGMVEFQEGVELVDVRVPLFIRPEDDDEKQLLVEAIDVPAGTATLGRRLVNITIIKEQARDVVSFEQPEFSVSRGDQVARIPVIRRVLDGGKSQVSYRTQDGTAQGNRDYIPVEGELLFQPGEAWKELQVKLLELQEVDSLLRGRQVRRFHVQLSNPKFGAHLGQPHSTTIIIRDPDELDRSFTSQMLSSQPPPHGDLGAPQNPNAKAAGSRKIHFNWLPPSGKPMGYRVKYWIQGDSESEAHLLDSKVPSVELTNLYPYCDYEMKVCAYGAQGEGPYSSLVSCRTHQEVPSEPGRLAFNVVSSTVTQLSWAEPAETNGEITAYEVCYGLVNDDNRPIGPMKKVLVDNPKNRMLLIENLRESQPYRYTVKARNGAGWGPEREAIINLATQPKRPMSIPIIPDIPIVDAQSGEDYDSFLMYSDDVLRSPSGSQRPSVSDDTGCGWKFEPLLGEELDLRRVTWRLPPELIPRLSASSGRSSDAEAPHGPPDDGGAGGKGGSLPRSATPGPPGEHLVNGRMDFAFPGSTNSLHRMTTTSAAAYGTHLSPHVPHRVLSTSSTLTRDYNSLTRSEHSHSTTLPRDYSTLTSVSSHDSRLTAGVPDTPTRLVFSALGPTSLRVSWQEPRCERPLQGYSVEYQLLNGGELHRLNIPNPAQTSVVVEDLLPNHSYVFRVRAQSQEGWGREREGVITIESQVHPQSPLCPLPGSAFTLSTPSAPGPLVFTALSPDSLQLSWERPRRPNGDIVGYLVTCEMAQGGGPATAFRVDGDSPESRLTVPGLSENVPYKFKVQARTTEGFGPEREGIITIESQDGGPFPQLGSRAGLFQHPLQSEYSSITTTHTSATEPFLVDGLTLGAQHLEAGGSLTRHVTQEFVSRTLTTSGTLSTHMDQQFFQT

| Substance | ratio to parent |
| --- | --- |
| wild-type FAK (co-immunoprecipitations from transfected cells) R385A; S386A | 0.7 |
| wild-type FAK (co-immunoprecipitations from transfected cells) E380A; K381A; Q382A | 0.2 |

The substances below were run against wild-type β4 integrin (co-immunoprecipitations from transfected cells) (UniProt P16144) (assay: co-immunoprecipitation (IP: Myc (β4)) and Western blot, densitometry). Settings: parent: 1.0.

| Substance | ratio to parent |
| --- | --- |
| wild-type FAK (co-immunoprecipitations from transfected cells) R385A | 0.5 |
| wild-type FAK (co-immunoprecipitations from transfected cells) K381A | 0.3 |
| wild-type FAK (co-immunoprecipitations from transfected cells) N379A | 1.4 |
| wild-type FAK (co-immunoprecipitations from transfected cells) S386A | 1.2 |
| wild-type FAK (co-immunoprecipitations from transfected cells) Q382A | 0.3 |
| wild-type FAK (co-immunoprecipitations from transfected cells) E380A | 0.3 |
| wild-type FAK (co-immunoprecipitations from transfected cells) G383A | 1.2 |

These substances were tested against wild-type FAK (co-immunoprecipitations from transfected cells) in the same assay as above. Settings: parent: 1.0.

| Substance | ratio to parent |
| --- | --- |
| wild-type β4 integrin (co-immunoprecipitations from transfected cells) (from UniProt P16144) Y1440F | 1.4 |
| wild-type β4 integrin (co-immunoprecipitations from transfected cells) (from UniProt P16144) Y1494F | 1.1 |
| wild-type β4 integrin (co-immunoprecipitations from transfected cells) (from UniProt P16144) Y1422F | 1.1 |
| wild-type β4 integrin (co-immunoprecipitations from transfected cells) (from UniProt P16144) Y1642F | 0.3 |
| wild-type β4 integrin (co-immunoprecipitations from transfected cells) (from UniProt P16144) Y1526F | 0.5 |
